# From patent publication US20110059092A1 (INNOGENETICS, published 2011)
# Ends that are not written are not given here. * marks the point of attachment. Biotin = O=C1N[C@H]2[C@H](CS[C@H]2CCCCC(=O)*)N1
# T1: Aβ8-15-bio (not fully specified (C-terminus); printed as S8GYEVHHQ15GK-biotin)
# T1 construct: Synthetic biotinylated peptide with a free N-terminus at Ser8 of Aβ; also called IGP-2258; Aβ8-15 peptide
# T1 peptide: SGYEVHHQGK(Biotin)
# T2: Aβ6-13-bio (not fully specified (C-terminus); printed as H6DSGYEVH13GK-biotin)
# T2 construct: Synthetic biotinylated peptide, shifted two amino acids N-terminal compared with Aβ8-15; also called Aβ6-13 peptide
# T2 peptide: HDSGYEVHGK(Biotin)
# Experiments:
# [1] = target: T1, Aβ8-15-bio; test: Luminex: biotinylated peptide on avidin beads, anti-mouse phycoerythrin detection
# Excerpt: (§1) To determine the specificity of the antibody a peptide was used which is shifted two amino-acids N-terminal as compared to the Aβ₈₋₁₅, the Aβ₆₋₁₃ peptide. The biotinylated versions of these peptides are used in order to capture it efficiently to avidin Luminex beads. […] The results presented in Table 3 are raw data expressed as Mean Fluorescence Intensity (MFI).
# [2] = target: T2, Aβ6-13-bio; test: as above
# Excerpt: as §1
# [3] = target: T1, Aβ8-15-bio; test: bridging assay: BSA-coupled Aβ8-15 peptide (PG127) captures one binding site, biotinylated peptide detects
# Description: Spleen of both mice were prepared and fused to SP2/0 cells. After plating, 66 plates (±3000 clones) were screened. […] In the bridging assay, BSA coupled peptide IGP-128, PG127 (see Table 3) was used to capture one binding site of the antibody and a biotinylated peptide was used to detect the captured antibody in a so-called bridging assay. This assay gives an indication on the affinity of the antibody: a high-affinity antibody will give a higher signal than a lower affinity antibody. Indeed ‘two classes’ of antibodies have been identified.
Binder,Luminex assay (MFI) [1] [MFI],Luminex assay (MFI) [2] [MFI],Bridging assay (OD450) [3] [OD450]
"TeiA 2b.6 (antibody, IgG2b, V domains shown, Mouse monoclonal, IgG2b; also called 2.13.E5; 2.13.E5.E4) VH: GGLVQPGGSLRLSCATSGFTFTDFYMEWVRQPPGKRLEWIAASRNKANGYTTEYSASVKGRFIVSRDTSQGILYLQMSALRAEDTAIYYCAIYRYYAMDYWGQGTSVTVSS VL: SSLTVTAGEKVTMSCKSSQSLFNSGRQTNYLTWFQQRPGQAPKLLIYWASTRGSGVPDRFTGSGSGTEFTLTISSVQAEDLAVYYCQNDYTYPLTFGAG",1690,51,4
"TeiA 1.7 (antibody, IgG1, V domains shown, Mouse monoclonal, IgG1; The printed variable regions seem N-terminally incomplete (primer region missing); also called 2.8.A3; 2.8.A3.F8) VH: GGLVQPGGSLRLSCATSGFTFSDFYMEWVRQPPGRRLEWIAASRDKAKDYTTEYSASVKGRFIVSRDTSQSIFYLQMNALRSEDTAIYYCATYFSYAMDYWGLGTSVTVSS VL: SSLTVTAGEKVTMNCKSSQNLLNSGNQVNYLTWFQQKPGQPPKLLIYWASTRESGVPDRFIGSGSGTDFTLTINSVQAEDLAVYYCQNDYRYPLTFGAG",1720,5,0.222
"TeiA 1.1 (antibody, IgG1, V domains shown, Mouse monoclonal, IgG1; The printed variable regions seem N-terminally incomplete (primer region missing); also called 3.46.B10; 3.46.B10.E7) VH: GGLVQPGGSLRLSCATSGFTFSDFFIEWVRQPPGKRLEWITASRNKNYDYKTEYSASVKGRFIVSRDTSQSILYLQMNALRAEDTAIYYCAIYRHYAMDYWGQGTSVTVSS VL: SSLTVTAGEKVTMSCTSSQSLFNSGTQTNYLTWYQQKPGQPPKLLIYWASTRESGVPDRFTGSGSGTDFTLTISSVQAEDLAVYYCQNDYTYPLTFGAG",1820,24,3.76
